Tests used:
[1] = target: LuS-N71-SpyTag (Aquifex aeolicus); assay: SDS-PAGE of the covalent conjugate, band intensities; conjugated product or conjugation mixture on SDS-PAGE with DTT; band intensity and molecular weight used to work out the molar share of conjugated nanoparticle subunit
[2] = target: ferritin-N96-SpyTag (Helicobacter pylori); assay: as above

Substance | percent of nanoparticle subunit conjugated [1] [%] | percent of nanoparticle subunit conjugated [2] [%]
PIV3 F-SpyCatcher | 68 | 
RSV F-SpyCatcher | 67 | 85

Reference: article PMC7584627
